Among the data in patent publication US20240018502A1 are EC50 of hC3 cleavage values, retold here.

Positions count from the first letter of the chain named. Names and notes keep the numbering of the source.

Sequences and labels used below:
B1: MTSP-1 K86R/K110R/C122S/K134R/K157R/K224R/K239R (enzyme)
chain: VVGGTDADEGEWPWQVSLHALGQGHICGASLISPNWLVSAAHCYIDDRGFRYSDPTQWTAFLGLHDQSQRSAPGVQERRLRRIISHPFFNDFTFDYDIALLELERPAEYSSMVRPISLPDASHVFPAGRAIWVTGWGHTQYGGTGALILQRGEIRVINQTTCENLLPQQITPRMMCVGFLSGGVDSCQGDSGGPLSSVEADGRIFQAGVVSWGDGCAQRNRPGVYTRLPLFRDWIRENTGV
B2: MTSP-1 H40R/I41H/F97T/ins97aE/T98G/F99L/C122S/Q175L/Q192E (enzyme)
chain: VVGGTDADEGEWPWQVSLHALGQGRHCGASLISPNWLVSAAHCYIDDRGFRYSDPTQWTAFLGLHDQSQRSAPGVQERRLKRIISHPFFNDTEGLDYDIALLELEKPAEYSSMVRPISLPDASHVFPAGKAIWVTGWGHTQYGGTGALILQKGEIRVINQTTCENLLPQLITPRMMCVGFLSGGVDSCEGDSGGPLSSVEADGRIFQAGVVSWGDGCAQRNKPGVYTRLPLFRDWIKENTGV
B3: MTSP-1 H40R/I41H/F97E/ins97aE/T98G/F99L/C122S/Q175L/Q192G (enzyme)
chain: B2 chain with T92E, E189G
B4: MTSP-1 H40R/I41H/F97T/ins97aE/T98G/F99L/C122S/Q175L/Q192G (enzyme)
chain: B2 chain with E189G
B5: MTSP-1 K86R/F97T/ins97aE/T98G/F99L/K110R/C122S/K134R/K157R/Q175L/Q192E/K224R/K239R (enzyme)
chain: B2 chain with R25H, H26I, K81R, K106R, K130R, K152R, K222R, K237R
B6: MTSP-1 I41R/ins97aE/F97T/T98G/F99L/C122S/G151E/Q175L/Q192E (enzyme)
chain: B2 chain with R25H, H26R, G146E
B7: MTSP-1 H40R/I41H/F97D/ins97aE/T98G/F99L/C122S/Q175L/Q192G (enzyme)
chain: B2 chain with T92D, E189G
B8: MTSP-1 H40R/I41H/F97D/F99L/C122S/G151N/Q175M/Q192A/D217N/K224R (enzyme)
chain: VVGGTDADEGEWPWQVSLHALGQGRHCGASLISPNWLVSAAHCYIDDRGFRYSDPTQWTAFLGLHDQSQRSAPGVQERRLKRIISHPFFNDDTLDYDIALLELEKPAEYSSMVRPISLPDASHVFPAGKAIWVTGWGHTQYGGTNALILQKGEIRVINQTTCENLLPQMITPRMMCVGFLSGGVDSCAGDSGGPLSSVEADGRIFQAGVVSWGNGCAQRNRPGVYTRLPLFRDWIKENTGV
B9: MTSP-1 H40R/I41H/F97D/F99L/C122S/G151N/Q192H/P232S (enzyme)
chain: B8 chain with M169Q, A188H, N214D, R221K, P229S
B10: MTSP-1 H40R/I41H/F97D/C122S/G151N/L153R/V202M (enzyme)
chain: B8 chain with L94F, L147R, M169Q, A188Q, V198M, N214D, R221K
B11: MTSP-1 H40R/I41H/F97D/C122S/G133D/G151N (enzyme)
chain: B8 chain with L94F, G128D, M169Q, A188Q, N214D, R221K
B12: MTSP-1 H40K/I41M/F97D/F99L/C122S/G151N/Q175L/Q192A/D217N/K224R (enzyme)
chain: B8 chain with R25K, H26M, M169L
B13: MTSP-1 H40K/I41M/F97D/F99L/C122S/G151N/Q175M/Q192D/D217N/K224R (enzyme)
chain: B8 chain with R25K, H26M, A188D
B14: MTSP-1 H40R/I41H/F97D/F99L/C122S/G151N/L153R (enzyme)
chain: B8 chain with L147R, M169Q, A188Q, N214D, R221K
B15: MTSP-1 H40R/I41H/F97D/C122S/G151N/L153R (enzyme)
chain: B8 chain with L94F, L147R, M169Q, A188Q, N214D, R221K
B16: MTSP-1 H40R/I41H/F97D/F99L/C122S/Q175M/Q192D/D217N/K224R (enzyme)
chain: B8 chain with N145G, A188D
B17: MTSP-1 H40K/I41M/F97D/F99L/C122S/Q175M/D217N/K224R (enzyme)
chain: B8 chain with R25K, H26M, N145G, A188Q
B18: MTSP-1 I41R/F99L/C122S/Q192G (enzyme)
chain: B8 chain with R25H, H26R, D92F, N145G, M169Q, A188G, N214D, R221K
B19: MTSP-1 H40R/I41H/F97D/F99L/C122S/G151N/Q175L/Q192A/D217N/K224R (enzyme)
chain: B8 chain with M169L
B20: MTSP-1 H40R/I41H/F99L/C122S/G151K/Q192G (enzyme)
chain: B8 chain with D92F, N145K, M169Q, A188G, N214D, R221K
B21: MTSP-1 H40K/I41M/F97D/F99L/C122S/G151N/Q175M/Q192A/D217N/K224R (enzyme)
chain: B8 chain with R25K, H26M
B22: MTSP-1 H40R/I41H/F97D/F99L/C122S/G151N/Q192H (enzyme)
chain: B8 chain with M169Q, A188H, N214D, R221K
B23: MTSP-1 H40K/I41M/F97D/F99L/C122S/Q175M/Q192D/D217N/K224R (enzyme)
chain: B8 chain with R25K, H26M, N145G, A188D
B24: MTSP-1 H40K/I41M/F99L/C122S/T150A/G151R/Q192G (enzyme)
chain: B8 chain with R25K, H26M, D92F, T144A, N145R, M169Q, A188G, N214D, R221K
B25: MTSP-1 H40R/I41H/F97D/F99L/C122S/Q175M/D217N/K224R (enzyme)
chain: B8 chain with N145G, A188Q
B26: MTSP-1 H40R/I41H/K86R/F97D/K110R/C122S/K134R/G151N/K157R/K224R/K239R (enzyme)
chain: B1 chain with H25R, I26H, F92D, G145N

This assay deals with plasma purified human complement protein C3 (human) (UniProt P01024). The assay can be described thus: cell-based or functional assay.
plasma purified human complement protein C3 (human), sequence (P01024 23-667, chain 1 of 2): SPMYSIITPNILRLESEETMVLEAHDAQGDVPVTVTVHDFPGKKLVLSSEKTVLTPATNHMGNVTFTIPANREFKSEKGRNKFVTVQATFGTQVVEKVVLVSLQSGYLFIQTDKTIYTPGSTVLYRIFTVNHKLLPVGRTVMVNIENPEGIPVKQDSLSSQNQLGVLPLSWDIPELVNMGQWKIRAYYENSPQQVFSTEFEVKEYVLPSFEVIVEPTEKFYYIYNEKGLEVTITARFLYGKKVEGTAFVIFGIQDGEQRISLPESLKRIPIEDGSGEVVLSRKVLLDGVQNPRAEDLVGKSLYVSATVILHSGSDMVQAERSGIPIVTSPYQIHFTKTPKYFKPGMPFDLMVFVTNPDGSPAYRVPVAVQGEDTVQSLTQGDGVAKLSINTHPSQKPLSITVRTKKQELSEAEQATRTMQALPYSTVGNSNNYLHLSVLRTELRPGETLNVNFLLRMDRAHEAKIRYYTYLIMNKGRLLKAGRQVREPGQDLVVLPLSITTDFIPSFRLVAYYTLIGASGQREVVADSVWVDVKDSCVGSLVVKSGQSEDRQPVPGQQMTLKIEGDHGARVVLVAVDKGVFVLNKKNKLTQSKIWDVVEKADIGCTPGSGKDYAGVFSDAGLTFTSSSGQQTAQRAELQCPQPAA
plasma purified human complement protein C3 (human), sequence (P01024 672-1663, chain 2 of 2): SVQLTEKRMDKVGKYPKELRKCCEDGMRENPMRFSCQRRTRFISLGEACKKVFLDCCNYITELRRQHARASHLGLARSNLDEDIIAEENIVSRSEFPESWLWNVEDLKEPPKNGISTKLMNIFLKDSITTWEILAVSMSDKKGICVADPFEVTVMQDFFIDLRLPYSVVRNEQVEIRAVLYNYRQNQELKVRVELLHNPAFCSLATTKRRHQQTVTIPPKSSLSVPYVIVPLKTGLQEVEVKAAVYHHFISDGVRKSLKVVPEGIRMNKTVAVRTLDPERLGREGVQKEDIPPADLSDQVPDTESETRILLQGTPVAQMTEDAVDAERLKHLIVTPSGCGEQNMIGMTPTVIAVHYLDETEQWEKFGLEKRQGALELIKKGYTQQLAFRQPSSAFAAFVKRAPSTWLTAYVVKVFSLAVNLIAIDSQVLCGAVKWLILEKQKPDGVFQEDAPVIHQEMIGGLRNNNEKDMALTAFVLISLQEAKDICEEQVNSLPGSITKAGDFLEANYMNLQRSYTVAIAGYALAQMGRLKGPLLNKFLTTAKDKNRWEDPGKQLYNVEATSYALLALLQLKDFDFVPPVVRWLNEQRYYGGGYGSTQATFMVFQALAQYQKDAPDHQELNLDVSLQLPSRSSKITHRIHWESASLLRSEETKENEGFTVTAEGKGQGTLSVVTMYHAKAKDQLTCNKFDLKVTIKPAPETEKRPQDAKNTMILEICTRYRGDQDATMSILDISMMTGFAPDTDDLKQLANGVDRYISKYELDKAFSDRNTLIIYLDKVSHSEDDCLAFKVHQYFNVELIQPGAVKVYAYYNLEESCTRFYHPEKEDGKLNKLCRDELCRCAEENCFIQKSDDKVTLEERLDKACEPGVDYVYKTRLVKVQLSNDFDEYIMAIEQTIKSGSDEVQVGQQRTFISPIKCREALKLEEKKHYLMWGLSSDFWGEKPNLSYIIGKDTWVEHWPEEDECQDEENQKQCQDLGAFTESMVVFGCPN
B1 had an EC50 of hC3 cleavage of 17.3 nM.
To B2 belongs 5860 nM; to B3, 82.4 nM.
To B4 belongs 46 nM; to B5, 253 nM; to B6, 126 nM.
To B7 belongs 39.7 nM; to B8, 563 nM; to B9, 262 nM.
In turn, B10 showed an EC50 of hC3 cleavage of 103 nM.
The figure for B11 is 60.4 nM.
B12 displayed an EC50 of hC3 cleavage of 1290 nM.
With B13, the EC50 of hC3 cleavage was determined as 9.74 nM.
The figure for B14 is 59.9 nM; for B15 it is 126 nM.
To B16 belongs 9990 nM.
The figure for B17 is 144 nM.
B18 gave an EC50 of hC3 cleavage of 53.8 nM.
B19 gave an EC50 of hC3 cleavage of 540 nM.
In turn, B20 returned an EC50 of hC3 cleavage of 1520 nM.
The figure for B21 is 1230 nM; for B22 it is 179 nM; for B23 it is 9.64 nM.
As to B24, the EC50 of hC3 cleavage came out at 110 nM.
B25: the EC50 of hC3 cleavage came out at 103 nM.
The molecule B26 showed an EC50 of hC3 cleavage of 304 nM.
